# In patent publication CN105601719A, “拟组织金属蛋白酶抑制因子多肽及其应用” (Suzhou Puluoda Biological Science and Technology Co Ltd, priority 2016, dated 2016):
# Assays:
# [1] = target: recombinant human matrix metalloproteinase-9 (重组人基质金属蛋白酶-9) (Homo sapiens, UniProt P14780); test: In vitro inhibition of matrix metalloproteinase-9 (fluorogenic peptide cleavage); format: biochemical; conditions: MMP-9; same fluorogenic substrate, 10 μM final; 37 °C; 100 μl
# [2] = tested on: human osteoblasts (人成骨细胞); test: Growth of human osteoblasts cultured in vitro (MTT colorimetric assay); format: cell-based; conditions: 48 h, absorbance 620 nm
# [3] = target: T1, recombinant human matrix metalloproteinase-2 (重组人基质金属蛋白酶-2) (Homo sapiens, UniProt P08253); test: In vitro inhibition of matrix metalloproteinase-2 (fluorogenic peptide cleavage); format: biochemical; conditions: MMP-2; substrate Mca-Pro-Leu-Gly-Leu-Dpa-Ala-Arg-NH2; pH 7.4; 37 °C; 100 μl
# T1 construct: 该酶用0.01μM的基质金属蛋白酶-3活性位点活化; made in house; host or cells: E. coli
# T1 sequence (P08253 110-660): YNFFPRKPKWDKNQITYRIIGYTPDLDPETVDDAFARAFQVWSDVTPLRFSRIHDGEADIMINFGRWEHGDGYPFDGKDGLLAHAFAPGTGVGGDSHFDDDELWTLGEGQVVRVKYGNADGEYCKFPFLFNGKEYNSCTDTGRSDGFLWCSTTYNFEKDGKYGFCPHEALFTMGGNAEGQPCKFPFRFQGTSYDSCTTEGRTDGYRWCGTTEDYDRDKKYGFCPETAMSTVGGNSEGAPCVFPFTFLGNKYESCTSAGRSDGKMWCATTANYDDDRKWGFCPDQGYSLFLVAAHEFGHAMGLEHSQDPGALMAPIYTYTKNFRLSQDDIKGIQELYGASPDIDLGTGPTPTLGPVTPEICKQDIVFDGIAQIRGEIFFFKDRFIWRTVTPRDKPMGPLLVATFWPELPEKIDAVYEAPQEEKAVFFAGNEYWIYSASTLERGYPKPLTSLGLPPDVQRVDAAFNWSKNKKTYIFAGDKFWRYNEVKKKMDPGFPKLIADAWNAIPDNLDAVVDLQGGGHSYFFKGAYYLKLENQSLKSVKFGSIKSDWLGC
# Sequence of recombinant human matrix metalloproteinase-9 (重组人基质金属蛋白酶-9) (P14780 94-707): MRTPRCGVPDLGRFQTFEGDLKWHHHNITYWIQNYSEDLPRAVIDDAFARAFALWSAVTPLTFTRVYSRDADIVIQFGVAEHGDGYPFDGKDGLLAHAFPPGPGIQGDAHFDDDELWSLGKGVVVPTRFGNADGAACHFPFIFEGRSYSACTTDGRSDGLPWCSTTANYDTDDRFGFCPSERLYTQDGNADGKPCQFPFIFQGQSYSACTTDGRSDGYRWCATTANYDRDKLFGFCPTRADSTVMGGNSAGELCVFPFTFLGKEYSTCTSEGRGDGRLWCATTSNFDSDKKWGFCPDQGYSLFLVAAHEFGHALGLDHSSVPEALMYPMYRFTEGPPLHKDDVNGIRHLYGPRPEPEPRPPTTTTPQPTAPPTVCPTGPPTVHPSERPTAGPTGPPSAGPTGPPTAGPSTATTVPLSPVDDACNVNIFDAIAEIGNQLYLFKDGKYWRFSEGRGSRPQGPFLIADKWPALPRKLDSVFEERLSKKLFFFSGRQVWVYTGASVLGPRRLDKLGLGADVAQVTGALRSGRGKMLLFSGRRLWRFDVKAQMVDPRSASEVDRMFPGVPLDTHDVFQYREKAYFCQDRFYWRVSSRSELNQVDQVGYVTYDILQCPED
sequence,measurement,setting,value
"PEPEFHLISAFWPSLPSYLDAA [实施例1, TIMP-mimetic 22-residue peptide made by Fmoc solid-phase synthesis]",IC50,[1],25.8 µM
same,EC50,[2],13.2 µM
same,IC50,[3],75.1 µM
